According to the Immune Epitope Database (IEDB):

Legend:
[1] = molecular target: HLA-B*15:01; assay: IEDB peptide-MHC binding, purified MHC/competitive/fluorescence; filed as Kd, often an IC50 or EC50 that approximates it; ≥ and ≤ were set here for values at or beyond the usual limits of such assays
[2] = molecular target: HLA-A*24:02; assay: IEDB peptide-MHC binding, purified MHC/competitive/fluorescence; ≥ and ≤ were set here for values at or beyond the usual limits of such assays
[3] = molecular target: HLA-B*15:01; assay: IEDB peptide-MHC binding, purified MHC/competitive/radioactivity; filed as Kd, often an IC50 or EC50 that approximates it; ≥ and ≤ were set here for values at or beyond the usual limits of such assays
[4] = molecular target: HLA-A*32:01; assay: as above
[5] = molecular target: HLA-A*02:01; assay: IEDB peptide-MHC binding, purified MHC/competitive/fluorescence; ≥ and ≤ were set here for values at or beyond the usual limits of such assays
[6] = molecular target: HLA-A*26:01; assay: IEDB peptide-MHC binding, purified MHC/competitive/radioactivity; filed as Kd, often an IC50 or EC50 that approximates it; ≥ and ≤ were set here for values at or beyond the usual limits of such assays
[7] = molecular target: HLA-A*30:02; assay: as above
[8] = molecular target: HLA-A*01:01; assay: as above
[9] = molecular target: HLA-A*29:02; assay: as above
[10] = molecular target: HLA-A*30:01; assay: as above
[11] = molecular target: HLA-B*07:02; assay: as above
[12] = molecular target: HLA-B*35:01; assay: as above
[13] = molecular target: HLA-B*51:01; assay: as above; details: source organism: Dengue virus 1 Brazil/97-11/1997
[14] = molecular target: HLA-B*53:01; assay: as above; details: source organism: Dengue virus 1 Brazil/97-11/1997
[15] = molecular target: HLA-A*23:01; assay: as above
[16] = molecular target: HLA-A*24:02; assay: as above
[17] = source organism: Zaire ebolavirus
[18] = source organism: Vaccinia virus WR
[19] = source organism: Dengue virus 2 Jamaica/1409/1983
[20] = source organism: Dengue virus 3 Martinique/1243/1999
[21] = source organism: Mammarenavirus juninense
[22] = source organism: Dengue virus 1 Brazil/97-11/1997
[23] = source organism: Sudan ebolavirus
[24] = source organism: Mammarenavirus lassaense
[25] = source organism: Mammarenavirus machupoense
[26] = source organism: Mammarenavirus brazilense
[27] = source organism: SARS coronavirus Tor2

## GIFGAIAGF
[1]; source organism: Influenza A virus (A/equine/NewMarket/D64/79(H3N8))
  Kd: 288 nM

## EWAMEKSSK
[2]; source organism: Vaccinia virus
  IC50: ≥ 382000 nM

## KNSQKGQHI
[2]; [17]
  IC50: ≥ 615000 nM

## LQHILIEYM
[3]; [18]
  Kd: 1220 nM

## KTIARFTYF
[4]; [18]
  Kd: 95.2 nM
[3]; [18]
  Kd: 0.195 nM

## IGKALHQVF
[3]; [19]
  Kd: 374 nM

## RYQATGFGT
[5]; [17]
  IC50: ≥ 226000 nM
[2]; [17]
  IC50: ≥ 99300 nM

## EMCDDTVTY
[6]; [20]
  Kd: 11200 nM
[7]; [20]
  Kd: ≥ 76900 nM
[3]; [20]
  Kd: 99 nM

## KTGEKSRCY
[8]; [21]
  Kd: ≥ 22500 nM
[6]; [21]
  Kd: ≥ 77900 nM
[9]; [21]
  Kd: ≥ 78900 nM
[10]; [21]
  Kd: 2480 nM
[7]; [21]
  Kd: 2190 nM
[4]; [21]
  Kd: 116 nM

## LIILSAVAI
[4]; [18]
  Kd: 125 nM

## FPLCLSTTSQ
[11]; [22]
  Kd: 179 nM
[12]; [22]
  Kd: 514 nM
[13]
  Kd: ≥ 39600 nM
[14]
  Kd: 36.3 nM

## EGAAIGLAW
[2]; [17]
  IC50: 2320 nM

## GVVAFLILP
[5]; [17]
  IC50: 53900 nM
[2]; [17]
  IC50: ≥ 194000 nM

## RMNAVSTIL
[1]; source organism: Bacillus cereus G9241
  Kd: 82.7 nM

## TPRSMPGTRR
[11]; [20]
  Kd: 1140 nM

## FLFQLNDTI
[5]; [23]
  IC50: 257 nM
[2]; [23]
  IC50: 879 nM

## LPDTIETLML
[12]; [22]
  Kd: 578 nM
[13]
  Kd: 19300 nM
[14]
  Kd: 297 nM

## SPSPTVEESR
[11]; [20]
  Kd: 3710 nM

## AAHSARPPPY
[8]; [24]
  Kd: 18800 nM
[6]; [24]
  Kd: 2280 nM
[9]; [24]
  Kd: 272 nM
[10]; [24]
  Kd: 114 nM
[7]; [24]
  Kd: 4570 nM
[4]; [24]
  Kd: 2410 nM

## NSIEYILSF
[3]; [18]
  Kd: 2260 nM

## KGCKLTETM
[3]; [18]
  Kd: 1250 nM

## LSSGEPHCA
[8]; [25]
  Kd: 4360 nM
[15]; [25]
  Kd: ≥ 48000 nM
[16]; [25]
  Kd: ≥ 77500 nM
[6]; [25]
  Kd: ≥ 77900 nM
[9]; [25]
  Kd: ≥ 78900 nM
[7]; [25]
  Kd: 4600 nM

## GLNISGYNY
[8]; [26]
  Kd: 13400 nM
[6]; [26]
  Kd: ≥ 67900 nM
[9]; [26]
  Kd: 16.8 nM
[10]; [26]
  Kd: ≥ 39200 nM
[7]; [26]
  Kd: 95.7 nM
[4]; [26]
  Kd: 16500 nM

## LVVGEKACL
[5]; [17]
  IC50: ≥ 115000 nM
[2]; [17]
  IC50: ≥ 139000 nM

## RLRGEQRKTF
[3]; source organism: Dengue virus 4 Philippines/H241/1956
  Kd: 24.4 nM

## MWLSYFVASF
[8]; [27]
  Kd: 1140 nM
[15]; [27]
  Kd: 0.257 nM
[16]; [27]
  Kd: 15.4 nM
[6]; [27]
  Kd: 142 nM
[9]; [27]
  Kd: 38.5 nM
[7]; [27]
  Kd: 2400 nM

## FHKEGAFFL
[5]; [17]
  IC50: ≥ 97800 nM
[2]; [17]
  IC50: 719 nM

## WLPMTVAAM
[3]; source organism: Dengue virus 3 Sri Lanka/1266/2000
  Kd: 177 nM

## SNTTGRLIW
[2]; [23]
  IC50: 3610 nM

## LILCVTQVLM
[12]; [19]
  Kd: 14200 nM

## EQAFYTRVL
[2]; [18]
  IC50: 58800 nM

## RISRFANLI
[4]; [18]
  Kd: 6.23 nM

## TPTWNRKELL
[11]; [20]
  Kd: 18.2 nM
